In patent US20260250418A1 (BIOCYTOGEN PHARMACEUTICALS BEIJING, published 2026):

Key:
[1] = target: T1, monkey (Macaca fascicularis) HER3 on CHO-fasHER3 cells (monkey (Macaca fascicularis), UniProt P21860 20-643 (human entry)); test: flow cytometry, transfected CHO cells
T1 construct: CHO-S cells transfected with fasHER3
T1 chain: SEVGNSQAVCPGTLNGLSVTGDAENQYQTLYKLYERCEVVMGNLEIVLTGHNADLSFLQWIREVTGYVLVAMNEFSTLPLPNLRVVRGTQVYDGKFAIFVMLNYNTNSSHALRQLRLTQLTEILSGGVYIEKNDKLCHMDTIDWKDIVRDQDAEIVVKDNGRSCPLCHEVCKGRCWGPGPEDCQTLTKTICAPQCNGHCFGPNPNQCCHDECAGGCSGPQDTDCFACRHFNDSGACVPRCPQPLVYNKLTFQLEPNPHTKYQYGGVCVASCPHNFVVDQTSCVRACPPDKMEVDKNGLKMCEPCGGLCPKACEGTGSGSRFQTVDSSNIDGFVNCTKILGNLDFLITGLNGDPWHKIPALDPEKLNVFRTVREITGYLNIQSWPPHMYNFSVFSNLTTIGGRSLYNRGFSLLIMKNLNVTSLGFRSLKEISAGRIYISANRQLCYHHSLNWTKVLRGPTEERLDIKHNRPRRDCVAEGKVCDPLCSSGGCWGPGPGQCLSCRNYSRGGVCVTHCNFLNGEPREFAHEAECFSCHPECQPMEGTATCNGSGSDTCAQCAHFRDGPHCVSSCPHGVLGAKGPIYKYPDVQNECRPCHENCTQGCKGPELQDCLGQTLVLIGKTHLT
Protocol: (§1) Specifically, CHO-hHER3 cells, CHO-fasHER3 cells, NIH3T3-hMET cells or NIH3T3-fasMET cells were transferred to a 96-well plate at a density of 5×10⁴ cells/well respectively. The antibodies were added to the 96-well plate, and incubated at 4° C. for 30 min.

[2] = target: T2, human HER3 on CHO-hHER3 cells (human, UniProt P21860 20-643); test: flow cytometry, transfected CHO cells
T2 construct: CHO-S cells transfected with hHER3
Protocol: as §1

[3] = target: T3, His-tagged human HER3 protein (hHER3, ACRO Biosystems Inc., Cat #: ER3-H5223) (human, UniProt P21860 20-643); test: SPR, Ab captured on Protein A, antigen 400 nM
T3 construct: Bought protein; also called hHER3-His; not shown: His tag
Protocol: (§2) Purified antibodies were captured on the Protein A chip (Series S Sensor Chip Protein A) for the detection. 2 μg/mL antibodies were loaded at 10 μL/min to bind to hHER3, fasHER3, hMET or fasMET (400 and 0 nM). The flow rate was 30 μL/min, the binding and dissociation time were set to 180 s and 400 s, respectively. The chip was regenerated after the last injection of each titration with a glycine solution ([…]) at 30 μL/min for 30 seconds.

[4] = target: T4, His-tagged monkey HER3 protein (fasHER3, Sino Biological, Inc., Cat #: 90043-K08H) (monkey); test: SPR, Ab captured on Protein A, antigen 400 nM
T4 construct: Bought protein
Protocol: as §2

[5] = target: T5, His-tagged human MET (hMET, Sino Biological, Inc., Cat #: 10692-H08H) (human, UniProt P08581 25-932); test: SPR, Ab captured on Protein A, antigen 400 nM
T5 construct: Bought protein; not shown: His tag
T5 sequence (P08581 25-932 limits assumed): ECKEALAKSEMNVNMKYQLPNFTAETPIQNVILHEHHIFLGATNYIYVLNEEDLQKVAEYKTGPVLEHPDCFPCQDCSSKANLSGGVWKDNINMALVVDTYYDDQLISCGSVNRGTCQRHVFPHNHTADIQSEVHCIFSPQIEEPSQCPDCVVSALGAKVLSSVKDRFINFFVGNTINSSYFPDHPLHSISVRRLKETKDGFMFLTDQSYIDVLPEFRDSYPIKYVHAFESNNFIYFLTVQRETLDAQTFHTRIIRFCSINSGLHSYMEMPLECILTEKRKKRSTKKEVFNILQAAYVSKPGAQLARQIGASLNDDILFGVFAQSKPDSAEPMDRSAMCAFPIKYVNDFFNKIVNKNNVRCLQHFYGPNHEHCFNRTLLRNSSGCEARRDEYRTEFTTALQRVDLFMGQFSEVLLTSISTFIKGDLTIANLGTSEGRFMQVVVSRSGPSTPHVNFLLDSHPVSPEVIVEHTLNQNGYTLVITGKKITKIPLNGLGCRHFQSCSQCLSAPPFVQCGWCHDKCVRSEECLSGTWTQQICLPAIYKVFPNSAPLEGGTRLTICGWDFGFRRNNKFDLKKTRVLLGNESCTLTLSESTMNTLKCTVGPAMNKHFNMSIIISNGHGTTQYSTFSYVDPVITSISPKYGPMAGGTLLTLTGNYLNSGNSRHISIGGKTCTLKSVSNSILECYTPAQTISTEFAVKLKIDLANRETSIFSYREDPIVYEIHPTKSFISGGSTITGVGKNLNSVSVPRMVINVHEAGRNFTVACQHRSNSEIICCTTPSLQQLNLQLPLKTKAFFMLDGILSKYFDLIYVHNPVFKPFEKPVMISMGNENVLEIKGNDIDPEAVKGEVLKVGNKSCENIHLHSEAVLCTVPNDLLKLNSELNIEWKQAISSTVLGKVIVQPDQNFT
Protocol: as §2

[6] = target: T6, human MET on NIH3T3-hMET cells (human, UniProt P08581 25-1390); test: flow cytometry, transfected NIH3T3 cells
T6 construct: NIH3T3 cells transfected with a plasmid expressing hMET
T6 sequence (P08581 25-1390 limits assumed): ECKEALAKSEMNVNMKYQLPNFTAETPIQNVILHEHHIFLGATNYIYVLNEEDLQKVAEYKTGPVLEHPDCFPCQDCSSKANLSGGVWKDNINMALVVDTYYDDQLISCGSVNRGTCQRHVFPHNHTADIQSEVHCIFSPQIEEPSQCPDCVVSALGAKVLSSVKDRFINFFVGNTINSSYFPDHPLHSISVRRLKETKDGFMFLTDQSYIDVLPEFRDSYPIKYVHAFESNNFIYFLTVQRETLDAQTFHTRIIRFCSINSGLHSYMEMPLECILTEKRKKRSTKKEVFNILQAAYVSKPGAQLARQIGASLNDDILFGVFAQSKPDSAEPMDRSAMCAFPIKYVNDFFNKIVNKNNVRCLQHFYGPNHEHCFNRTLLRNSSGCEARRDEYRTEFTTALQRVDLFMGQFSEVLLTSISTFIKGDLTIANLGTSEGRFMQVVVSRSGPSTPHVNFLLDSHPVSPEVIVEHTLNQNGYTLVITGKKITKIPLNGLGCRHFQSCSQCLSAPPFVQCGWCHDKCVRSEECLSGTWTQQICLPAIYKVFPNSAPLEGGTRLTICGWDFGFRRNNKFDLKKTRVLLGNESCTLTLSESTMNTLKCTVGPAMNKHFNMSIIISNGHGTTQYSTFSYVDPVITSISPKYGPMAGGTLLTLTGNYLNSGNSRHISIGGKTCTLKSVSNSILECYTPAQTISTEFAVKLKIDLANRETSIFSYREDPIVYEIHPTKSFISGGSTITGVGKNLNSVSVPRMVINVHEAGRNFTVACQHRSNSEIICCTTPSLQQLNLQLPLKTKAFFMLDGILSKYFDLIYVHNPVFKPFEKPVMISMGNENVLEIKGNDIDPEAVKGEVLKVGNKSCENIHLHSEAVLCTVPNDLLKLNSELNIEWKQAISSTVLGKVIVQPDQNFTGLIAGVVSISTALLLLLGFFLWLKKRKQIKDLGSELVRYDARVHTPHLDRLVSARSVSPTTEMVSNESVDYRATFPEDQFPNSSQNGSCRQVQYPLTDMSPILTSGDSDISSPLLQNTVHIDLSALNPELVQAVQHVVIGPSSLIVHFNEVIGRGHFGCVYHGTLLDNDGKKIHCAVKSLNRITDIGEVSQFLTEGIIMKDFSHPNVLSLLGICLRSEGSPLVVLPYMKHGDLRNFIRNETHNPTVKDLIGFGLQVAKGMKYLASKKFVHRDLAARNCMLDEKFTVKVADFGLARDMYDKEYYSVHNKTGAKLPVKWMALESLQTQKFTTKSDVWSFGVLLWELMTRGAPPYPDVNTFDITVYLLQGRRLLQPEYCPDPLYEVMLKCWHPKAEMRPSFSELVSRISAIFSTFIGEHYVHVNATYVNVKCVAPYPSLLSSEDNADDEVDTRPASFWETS
Protocol: as §1

[7] = target: T7, monkey MET on NIH3T3-fasMET cells (monkey, UniProt A0M8R7 25-1381); test: flow cytometry, transfected NIH3T3 cells
T7 construct: NIH3T3 cells transfected with a plasmid expressing fasMET
T7 sequence (A0M8R7 25-1381 S170N/I621T limits assumed): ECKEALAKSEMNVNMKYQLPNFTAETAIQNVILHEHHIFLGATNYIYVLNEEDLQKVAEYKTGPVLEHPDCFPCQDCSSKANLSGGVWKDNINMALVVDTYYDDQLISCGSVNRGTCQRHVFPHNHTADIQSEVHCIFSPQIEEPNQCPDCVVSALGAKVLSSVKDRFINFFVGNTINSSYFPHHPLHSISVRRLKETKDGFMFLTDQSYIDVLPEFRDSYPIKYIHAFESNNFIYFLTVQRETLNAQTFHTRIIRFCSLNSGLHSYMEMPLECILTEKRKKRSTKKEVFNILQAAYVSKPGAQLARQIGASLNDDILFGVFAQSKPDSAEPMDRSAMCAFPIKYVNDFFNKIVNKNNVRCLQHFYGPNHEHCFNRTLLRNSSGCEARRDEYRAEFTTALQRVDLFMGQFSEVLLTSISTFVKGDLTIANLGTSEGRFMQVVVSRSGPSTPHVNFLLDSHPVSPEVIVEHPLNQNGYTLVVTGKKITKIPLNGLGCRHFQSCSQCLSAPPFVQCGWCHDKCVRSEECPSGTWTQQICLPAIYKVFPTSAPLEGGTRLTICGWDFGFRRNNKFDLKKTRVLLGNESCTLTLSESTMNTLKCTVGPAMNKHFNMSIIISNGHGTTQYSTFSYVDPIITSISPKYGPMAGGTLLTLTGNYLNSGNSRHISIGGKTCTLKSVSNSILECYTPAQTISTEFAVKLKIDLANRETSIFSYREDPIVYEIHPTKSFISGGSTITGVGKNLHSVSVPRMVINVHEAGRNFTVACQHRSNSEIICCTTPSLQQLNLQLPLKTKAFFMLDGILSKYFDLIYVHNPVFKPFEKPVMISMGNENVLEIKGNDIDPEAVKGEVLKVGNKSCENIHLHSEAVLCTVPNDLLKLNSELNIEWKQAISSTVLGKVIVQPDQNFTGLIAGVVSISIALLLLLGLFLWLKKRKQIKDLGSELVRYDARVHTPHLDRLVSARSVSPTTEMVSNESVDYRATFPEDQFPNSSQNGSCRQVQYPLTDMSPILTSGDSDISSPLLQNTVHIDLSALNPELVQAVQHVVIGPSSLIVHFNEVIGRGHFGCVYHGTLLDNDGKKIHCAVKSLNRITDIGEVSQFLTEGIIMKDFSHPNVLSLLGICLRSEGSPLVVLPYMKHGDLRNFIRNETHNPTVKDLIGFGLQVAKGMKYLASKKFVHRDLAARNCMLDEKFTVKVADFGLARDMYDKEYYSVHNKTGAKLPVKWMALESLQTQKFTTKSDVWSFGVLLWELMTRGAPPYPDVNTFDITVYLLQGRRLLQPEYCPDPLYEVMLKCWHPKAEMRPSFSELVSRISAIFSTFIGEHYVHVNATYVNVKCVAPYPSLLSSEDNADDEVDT
Protocol: as §1

[8] = target: T8, mouse HER3 on CHO-mHER3 cells (mouse, UniProt Q61526 20-641); test: flow cytometry, transfected CHO cells
T8 construct: CHO-S cells transfected with mHER3
T8 sequence (Q61526 20-641): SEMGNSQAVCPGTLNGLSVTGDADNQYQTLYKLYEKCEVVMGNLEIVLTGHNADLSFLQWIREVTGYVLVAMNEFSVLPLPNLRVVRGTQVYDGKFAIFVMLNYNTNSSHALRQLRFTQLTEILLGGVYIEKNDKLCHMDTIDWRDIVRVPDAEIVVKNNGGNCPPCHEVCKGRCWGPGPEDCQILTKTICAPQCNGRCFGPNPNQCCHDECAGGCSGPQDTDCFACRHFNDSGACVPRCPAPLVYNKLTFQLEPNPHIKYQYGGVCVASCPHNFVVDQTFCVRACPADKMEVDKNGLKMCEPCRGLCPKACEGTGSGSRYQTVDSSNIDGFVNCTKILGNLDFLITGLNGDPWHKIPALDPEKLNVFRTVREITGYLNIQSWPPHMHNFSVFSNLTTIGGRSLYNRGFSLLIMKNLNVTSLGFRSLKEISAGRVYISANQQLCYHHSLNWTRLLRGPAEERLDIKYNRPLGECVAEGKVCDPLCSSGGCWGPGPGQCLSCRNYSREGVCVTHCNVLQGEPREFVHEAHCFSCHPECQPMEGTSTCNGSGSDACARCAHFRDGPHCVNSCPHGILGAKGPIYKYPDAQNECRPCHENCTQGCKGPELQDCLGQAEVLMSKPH
Protocol: (§3) CHO-hHER3 cells, CHO-mHER3 cells, CHO-fasHER3 cells or CHO-dHER3 cells were transferred to a 96-well plate at a density of 5×10⁴ cells/well respectively. The anti-HER3 antibodies were added to the 96-well plate, and incubated at 4° C. for 30 min.

[9] = target: T1, monkey (Macaca fascicularis) HER3 on …; test: flow cytometry, transfected CHO cells
Protocol: as §3

[10] = target: T2, human HER3 on CHO-hHER3 cells; test: flow cytometry, transfected CHO cells; remark: listed apart in the source
Protocol: as §3

[11] = target: T9, dog HER3 on CHO-dHER3 cells (dog, UniProt P21860 20-1342 (human entry)); test: flow cytometry, transfected CHO cells
T9 construct: CHO-S cells transfected with dHER3
T9 chain: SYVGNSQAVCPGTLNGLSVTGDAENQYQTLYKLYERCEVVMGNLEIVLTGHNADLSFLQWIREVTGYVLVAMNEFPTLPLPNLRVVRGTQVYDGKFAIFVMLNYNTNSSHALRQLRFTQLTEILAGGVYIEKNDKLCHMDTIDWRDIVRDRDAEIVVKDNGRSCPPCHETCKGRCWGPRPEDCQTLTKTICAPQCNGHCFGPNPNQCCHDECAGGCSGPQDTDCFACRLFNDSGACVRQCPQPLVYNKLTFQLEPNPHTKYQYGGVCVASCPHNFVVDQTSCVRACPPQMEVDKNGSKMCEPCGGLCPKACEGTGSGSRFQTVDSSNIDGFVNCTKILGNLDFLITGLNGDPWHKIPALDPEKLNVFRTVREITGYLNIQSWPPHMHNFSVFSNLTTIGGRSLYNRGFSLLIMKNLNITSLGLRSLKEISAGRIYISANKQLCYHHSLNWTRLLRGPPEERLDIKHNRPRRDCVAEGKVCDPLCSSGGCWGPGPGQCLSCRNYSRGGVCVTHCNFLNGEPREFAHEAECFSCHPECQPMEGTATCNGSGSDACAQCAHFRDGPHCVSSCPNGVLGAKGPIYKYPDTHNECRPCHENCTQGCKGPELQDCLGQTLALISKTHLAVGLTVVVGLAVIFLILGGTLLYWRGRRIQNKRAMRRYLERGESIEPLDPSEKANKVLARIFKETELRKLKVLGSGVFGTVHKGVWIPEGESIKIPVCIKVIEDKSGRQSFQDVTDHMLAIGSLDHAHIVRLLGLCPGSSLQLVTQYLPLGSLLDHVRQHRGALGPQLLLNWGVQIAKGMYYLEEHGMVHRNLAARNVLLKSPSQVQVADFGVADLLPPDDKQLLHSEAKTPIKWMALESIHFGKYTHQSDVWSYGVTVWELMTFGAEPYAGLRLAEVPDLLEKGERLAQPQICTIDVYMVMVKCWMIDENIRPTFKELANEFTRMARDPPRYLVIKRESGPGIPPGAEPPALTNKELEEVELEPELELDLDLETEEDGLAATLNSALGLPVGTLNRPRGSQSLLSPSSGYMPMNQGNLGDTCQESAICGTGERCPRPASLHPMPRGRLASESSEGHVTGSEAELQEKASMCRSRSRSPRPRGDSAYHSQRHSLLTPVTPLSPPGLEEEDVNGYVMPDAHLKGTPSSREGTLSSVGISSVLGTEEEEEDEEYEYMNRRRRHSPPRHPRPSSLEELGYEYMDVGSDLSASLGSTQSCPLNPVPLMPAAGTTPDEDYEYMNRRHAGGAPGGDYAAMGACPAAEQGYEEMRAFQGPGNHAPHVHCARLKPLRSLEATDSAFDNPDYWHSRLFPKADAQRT
Protocol: as §3

[12] = target: T3, His-tagged human HER3 protein (hHER3, …); test: SPR, Ab captured on Protein A
Protocol: (§4) Purified anti-HER3 antibodies was captured on the Protein A chip (Series S Sensor Chip Protein A) for the detection. […] For ISO control, an antibody targeting an irrelevant target protein was used. The flow rate was 30 μL/min, the binding and dissociation time were set to 180 s and 400 s, respectively. The chip was regenerated after the last injection of each titration with a glycine solution (pH 2.0) at 30 μL/min for 30 seconds.
(§5) As a person of ordinary skill in the art would understand, the same method with appropriate adjustments for parameters (e.g., antibody concentration) was performed for each tested antibody.

[13] = target: T10, His-tagged dog HER3 protein (dHER3, SEQ ID NO: 45) (dog, UniProt P21860 20-642 (human entry)); test: SPR, Ab captured on Protein A
T10 construct: not shown: His tag
T10 chain: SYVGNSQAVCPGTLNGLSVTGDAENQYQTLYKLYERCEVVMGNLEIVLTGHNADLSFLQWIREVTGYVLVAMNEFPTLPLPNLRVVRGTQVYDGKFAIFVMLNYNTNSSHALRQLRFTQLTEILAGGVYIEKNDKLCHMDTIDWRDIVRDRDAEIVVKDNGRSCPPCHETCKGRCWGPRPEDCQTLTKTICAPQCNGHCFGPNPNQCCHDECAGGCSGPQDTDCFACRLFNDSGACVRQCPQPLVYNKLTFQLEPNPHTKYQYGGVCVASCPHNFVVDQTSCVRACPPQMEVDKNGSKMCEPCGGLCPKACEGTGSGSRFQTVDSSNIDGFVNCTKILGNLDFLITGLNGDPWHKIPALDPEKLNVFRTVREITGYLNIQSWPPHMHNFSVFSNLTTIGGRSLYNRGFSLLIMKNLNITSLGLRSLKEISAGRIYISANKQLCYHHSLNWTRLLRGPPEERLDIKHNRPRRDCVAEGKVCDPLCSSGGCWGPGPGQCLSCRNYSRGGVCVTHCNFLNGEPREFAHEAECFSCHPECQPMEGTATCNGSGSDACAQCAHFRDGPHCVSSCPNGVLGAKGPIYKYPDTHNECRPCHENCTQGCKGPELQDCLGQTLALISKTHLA
Protocol: as §4, §5

[14] = target: T4, His-tagged monkey HER3 protein …; test: SPR, Ab captured on Protein A
Protocol: as §4, §5

B1: anti-HER3/MET bispecific antibody 1C5-2F11 (bispecific antibody, V domains shown)
VH 1: QVQLVESGGGVVQPGKSLRLSCAASGFTFSRSGMHWVRQAPGKGLEWVALISFDGSNKYYADSVKGRFTISRDNSKNTLNLQMNSLRAEDTAVYYCAKGGFGVVIYDAFDIWGHGTMVTVSS
VH 2: EVQLVESGPGLVKPSETLSLTCTVSGGSISSNYWSWIRQPPGKGLEWIGYIYHSGSTNYNPSLKSRVTISVDTSKNQFSLKLSSVTAADTAVYFCARGPVSIFGVVKYIDLWGRGTLVTVSS
VL: not shown
For B1, the “Positive Cells” value [1] was 54.9%, the “Positive Cells” value [2] was 56% and the Kd [3] was 29.3 nM. It also gave a koff [3] of 0.000548 s⁻¹, a kon [3] of 18700 M⁻¹ s⁻¹ and a Kd [4] of 103 nM. For the same binder, the koff [4] was 0.000582 s⁻¹, the kon [4] was 5630 M⁻¹ s⁻¹ and the Kd [5] was 44.2 nM. The koff [5] was 0.00282 s⁻¹, the kon [5] was 63800 M⁻¹ s⁻¹ and the “Positive Cells” value [6] was 99.7%. For the same binder, the “Positive Cells” value [7] was 68.4%.

B2: anti-HER3 antibody 1D6 (antibody, V domains shown)
VH: EVQLVQSGPGLVKPSETLSLTCTVSGGSISSNNYYWAWIRQPPGKGLEWIGSLYYTGRAYYKSSLKSRVTISVDTSNDQFSLRLTSVTAADTAIYYCARHDCGNTCLNWFDRWGQGTLVTVSS
VL: not shown
notes: common light chain
In the case of B2, the “Percentage of Positive Cells” value [8] is reported as 58.9%, the “Percentage of Positive Cells” value [9] is reported as 62.9% and the “Percentage of Positive Cells” value [10] is reported as 68%. For the same binder, the “Percentage of Positive Cells” value [11] was 38.1%, the Kd [12] was 81.4 nM and the koff [12] was 0.00769 s⁻¹. For the same binder, the kon [12] was 94500 M⁻¹ s⁻¹, the Kd [13] was 77.4 nM and the koff [13] was 0.0045 s⁻¹. It also gave a kon [13] of 58100 M⁻¹ s⁻¹, a Kd [14] of 14.4 nM and a koff [14] of 0.00098 s⁻¹. For the same binder, the kon [14] was 68000 M⁻¹ s⁻¹.

B3: anti-HER3/MET bispecific antibody 1B2-8H10 (bispecific antibody, V domains shown)
VH 1: QVQLVQSGPVLVKPTETLTLTCTVSTFSLSNARMGVSWIRQPPGKALEWLAHIFSNDDKSYSPSLKSRLTISKDTSKTQVVLTMTNMDPVDTATYYCSRMRYSGGPFDYWGQGSLVTVSS
VH 2: QVQLQQWGAGLLKPSETLSLTCAVYGGSFSGYYWTWIRQPPGKGLEWIGESNHGGSTNFNPSLKSRVTISVDTSKNHFSLKLSPVTAADTAVYYCTRGGTIFGLKDAFDIWGQGTMVTVSS
VL: not shown
With B3 the “Positive Cells” value [1] was 64.4%, the “Positive Cells” value [2] was 67.9% and the Kd [3] was 16.9 nM. The koff [3] was 0.00265 s⁻¹, the kon [3] was 157000 M⁻¹ s⁻¹ and the Kd [4] was 38.7 nM. The koff [4] was 0.00263 s⁻¹, the kon [4] was 67800 M⁻¹ s⁻¹ and the Kd [5] was 10.9 nM. For the same binder, the koff [5] was 0.00626 s⁻¹, the kon [5] was 574000 M⁻¹ s⁻¹ and the “Positive Cells” value [6] was 99.8%. The “Positive Cells” value [7] was 57.2%.

B4: anti-HER3/MET bispecific antibody 1C5-8H10 (bispecific antibody, V domains shown)
VH 1: QVQLVESGGGVVQPGKSLRLSCAASGFTFSRSGMHWVRQAPGKGLEWVALISFDGSNKYYADSVKGRFTISRDNSKNTLNLQMNSLRAEDTAVYYCAKGGFGVVIYDAFDIWGHGTMVTVSS
VH 2: QVQLQQWGAGLLKPSETLSLTCAVYGGSFSGYYWTWIRQPPGKGLEWIGESNHGGSTNFNPSLKSRVTISVDTSKNHFSLKLSPVTAADTAVYYCTRGGTIFGLKDAFDIWGQGTMVTVSS
VL: not shown
B4 was tested, and the “Positive Cells” value [1] was 58.9%, the “Positive Cells” value [2] was 67.3% and the Kd [3] was 28.5 nM. It also gave a koff [3] of 0.000593 s⁻¹, a kon [3] of 20800 M⁻¹ s⁻¹ and a Kd [4] of 81.5 nM. The koff [4] was 0.000655 s⁻¹, the kon [4] was 8040 M⁻¹ s⁻¹ and the Kd [5] was 12.8 nM. For the same binder, the koff [5] was 0.00427 s⁻¹, the kon [5] was 333000 M⁻¹ s⁻¹ and the “Positive Cells” value [6] was 99.8%. For the same binder, the “Positive Cells” value [7] was 54.8%.
